Results on two molecules are retold here after patent US20100233188A1 (YEDA RESEARCH AND DEVELOPMENT, published 2010).

A value given as a limit tells only on which side of the number the result lay.

Assay [1] deals with T1, MT1-MMP (MMP-14) catalytic domain (UniProt P50281 112-284, limits assumed). The assay is described as follows: cell-based or functional assay.
The target in assay [2] is TNF-alpha-converting enzyme (TACE, ADAM-17) (UniProt P78536 215-671, limits assumed). The assay is described as follows: cell-based or functional assay.
TNF-alpha-converting enzyme (TACE, ADAM-17), sequence (P78536 215-671 limits assumed): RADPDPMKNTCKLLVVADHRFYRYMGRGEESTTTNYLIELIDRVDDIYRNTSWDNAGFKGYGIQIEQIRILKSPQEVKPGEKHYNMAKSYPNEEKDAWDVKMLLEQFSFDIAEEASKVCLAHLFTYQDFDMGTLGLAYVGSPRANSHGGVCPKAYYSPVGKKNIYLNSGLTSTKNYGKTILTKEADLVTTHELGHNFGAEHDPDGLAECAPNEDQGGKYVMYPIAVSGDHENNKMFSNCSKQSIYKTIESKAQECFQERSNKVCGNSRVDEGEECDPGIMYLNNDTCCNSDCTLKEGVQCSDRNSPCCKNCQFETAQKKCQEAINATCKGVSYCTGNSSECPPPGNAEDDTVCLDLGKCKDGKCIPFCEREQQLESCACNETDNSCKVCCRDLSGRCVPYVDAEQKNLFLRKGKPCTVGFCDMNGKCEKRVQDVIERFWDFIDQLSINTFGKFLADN
For assay [3], the target named is MMP-2 (active; construct not stated at that place) (Mus musculus (Mouse), UniProt P33434 110-467, catalytic and structural zinc and calcium ions are bound; the letters cannot show them). The assay can be described thus: cell-based or functional assay.
Assay [4] has as its target T2, MMP-2 catalytic domain (MMP-2cat), amino acids 110-467 of GenBank NP-032636.1 (UniProt P33434 110-467).
T2 construct: range 110-467; also called MMP2 catalytic fragment; recombinant MMP-2 catalytic domain
The assay is described as follows: enzyme kinetics with fluorogenic peptide substrate, Lineweaver-Burk plot, competitive inhibition; MMP-2cat (FIG. 4A).

For assay [5], the target named is T3, full length APMA activated MMP-9 (human) (human, UniProt P14780 107-707).
T3 construct: mature; Active enzyme lacking the pro domain; also called active MMP-9 (full length)
T3 sequence (P14780 107-707): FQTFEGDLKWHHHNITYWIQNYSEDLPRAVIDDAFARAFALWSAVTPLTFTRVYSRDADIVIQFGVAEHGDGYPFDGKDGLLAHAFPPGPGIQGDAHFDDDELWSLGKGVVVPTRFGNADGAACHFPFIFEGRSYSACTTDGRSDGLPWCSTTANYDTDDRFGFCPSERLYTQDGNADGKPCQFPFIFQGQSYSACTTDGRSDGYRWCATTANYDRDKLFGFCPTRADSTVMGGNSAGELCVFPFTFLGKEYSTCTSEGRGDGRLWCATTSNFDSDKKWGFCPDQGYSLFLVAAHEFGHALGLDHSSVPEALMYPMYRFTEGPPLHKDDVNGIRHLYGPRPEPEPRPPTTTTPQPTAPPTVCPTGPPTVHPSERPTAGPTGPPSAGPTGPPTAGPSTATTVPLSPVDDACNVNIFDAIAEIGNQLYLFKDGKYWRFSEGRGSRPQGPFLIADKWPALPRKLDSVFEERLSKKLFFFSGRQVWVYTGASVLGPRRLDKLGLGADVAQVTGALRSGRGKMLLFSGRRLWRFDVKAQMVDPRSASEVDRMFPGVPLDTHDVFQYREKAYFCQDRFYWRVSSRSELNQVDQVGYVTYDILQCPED
The assay can be described thus: enzyme kinetics with fluorogenic peptide substrate, Lineweaver-Burk plot, competitive inhibition; full length APMA activated MMP-9 (FIG. 4B).

The target of assay [6] is T1, MT1-MMP (MMP-14) catalytic domain. The assay is described as follows: in-vitro fluorescence enzymatic activity assay with peptide substrate.
The target in assay [7] is T4, MMP-9 catalytic domain (recombinant catalytic fragment without the hemopexin and pro domain, APMA activated) (human, UniProt P14780 20-707).
T4 construct: domain: catalytic fragment (without the hemopexin and pro domain); also called MMP-9 recombinant catalytic fragment; MMP9 catalytic fragment
T4 sequence (P14780 20-707): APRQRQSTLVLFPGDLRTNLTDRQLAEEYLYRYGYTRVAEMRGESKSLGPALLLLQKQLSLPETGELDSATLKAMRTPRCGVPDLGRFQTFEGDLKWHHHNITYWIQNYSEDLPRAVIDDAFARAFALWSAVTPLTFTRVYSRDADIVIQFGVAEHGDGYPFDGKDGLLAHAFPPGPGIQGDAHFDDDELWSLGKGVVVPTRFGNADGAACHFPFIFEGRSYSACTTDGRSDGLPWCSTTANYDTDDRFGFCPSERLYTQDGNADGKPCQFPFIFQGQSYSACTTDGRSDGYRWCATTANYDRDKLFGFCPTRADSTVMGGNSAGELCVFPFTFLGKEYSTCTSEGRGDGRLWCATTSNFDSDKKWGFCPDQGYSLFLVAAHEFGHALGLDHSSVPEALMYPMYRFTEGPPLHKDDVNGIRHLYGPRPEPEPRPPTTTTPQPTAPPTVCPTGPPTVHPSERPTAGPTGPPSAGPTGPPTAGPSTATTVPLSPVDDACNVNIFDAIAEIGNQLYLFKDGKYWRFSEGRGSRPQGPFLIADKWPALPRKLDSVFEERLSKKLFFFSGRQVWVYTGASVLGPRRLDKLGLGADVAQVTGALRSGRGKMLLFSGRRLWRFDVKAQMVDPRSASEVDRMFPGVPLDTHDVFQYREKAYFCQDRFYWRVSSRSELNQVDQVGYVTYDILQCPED
The assay can be described thus: inhibition of fluorogenic peptide cleavage, fit assuming competitive inhibition; MMP-9 catalytic domain (FIG. 5).

Assay [8] concerns the target T1, MT1-MMP (MMP-14) catalytic domain. The assay can be described thus: inhibition of fluorogenic peptide cleavage, fit to competitive inhibition; catalytic domain of MT1-MMP (FIG. 12B).
Assay [9] has as its target T5, full length APMA activated MMP-2 (human) (human, UniProt P08253 110-660).
T5 construct: mature; Active enzyme lacking the pro domain; also called full length MMP2 purified from Hila cells; active MMP-2
T5 sequence (looked up): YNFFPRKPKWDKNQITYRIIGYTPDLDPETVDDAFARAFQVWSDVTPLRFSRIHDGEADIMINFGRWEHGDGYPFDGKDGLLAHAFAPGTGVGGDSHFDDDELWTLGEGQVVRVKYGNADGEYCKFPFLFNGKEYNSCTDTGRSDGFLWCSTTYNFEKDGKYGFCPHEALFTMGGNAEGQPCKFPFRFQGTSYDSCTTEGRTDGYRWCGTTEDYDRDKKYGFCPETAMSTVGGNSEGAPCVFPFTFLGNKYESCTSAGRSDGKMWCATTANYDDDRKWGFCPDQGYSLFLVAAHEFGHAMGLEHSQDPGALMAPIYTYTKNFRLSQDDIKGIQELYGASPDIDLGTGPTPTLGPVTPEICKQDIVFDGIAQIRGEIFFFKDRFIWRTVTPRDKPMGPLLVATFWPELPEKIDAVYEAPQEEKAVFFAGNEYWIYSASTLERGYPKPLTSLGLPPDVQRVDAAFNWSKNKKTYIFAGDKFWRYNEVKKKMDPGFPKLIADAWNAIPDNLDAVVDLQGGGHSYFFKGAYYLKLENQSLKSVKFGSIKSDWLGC
The assay can be described thus: inhibition of fluorogenic peptide cleavage, fit assuming competitive inhibition; full length APMA activated MMP-2 (FIG. 5).

Assay [10] has as its target T4, MMP-9 catalytic domain (recombinant …). The assay can be described thus: inhibition of fluorogenic peptide cleavage, fit to competitive inhibition; MMP-9 recombinant catalytic fragment (FIG. 12A).
In assay [11] the target is T5, full length APMA activated MMP-2 (human). The assay is described as follows: inhibition of fluorogenic peptide cleavage, fit to competitive inhibition; full length MMP2 purified from HeLa cells (FIG. 12B).

B1: 13E11 monoclonal antibody (anti CoTCPP mAb) (antibody, V domains shown)
VH: EGGGLVQPGGSRKLSCAASGFTFTSFGMHWVRQAPEKGLEWVAYISSGNEIIYYADTVKGRFTISRDNPKNTLFLQMTSLRSEDTAMYYCARNYYRYGFYVMDYWGQG
VL: EIVVTQSPAILSASPGEKVTMTCRASSSVSYMHWYQQKPGSSPKPWIYATSNELASGVPARFSGSGSGTSYSLTISRVEAEDAATYYCQQWISNPLTFGAG
Turning to B1, the “IC50 µM, inhibition of fluorogenic peptide cleavage” value in assay [1] is more than 30 µM; in assay [2], more than 30 µM; in [3] it was 24 µM. Also, the inhibitory constant (Ki) was found to be 24 µM in assay [4] and 13 µM in assay [5].

B2: 6C6 monoclonal antibody (anti Imisdp mAb) (antibody, V domains shown)
VH: CGGGLVKPGGSLKLSCAASGFAFSTYDMETSWIRQTPEKRLEWVATISSGGSCYTYYPDSVKGRFTISKDNARNTLYLQMETSSLRSGDTALYYCTRFRYDGWYFDVWGQG
VL: CMETTQTPLSLPVSLGDQASISCRSSQSIVHSNGNTFLEWYLQKPGQSPKLLIYKVSNCRFSGVPDRFSGSGSGTDFTLKISRVEAEDLGVYYCFQASHVPPTFGGG
Take B2: the results for the “IC50 µM, inhibition of fluorogenic peptide cleavage” value in [1] and in [2] were 14.4 µM and more than 30 µM, respectively. Moreover, the inhibitory constant (Ki) came to 10 µM in assay [6]; 5.8 µM in [7]; 14.4 µM in [8]; 3 µM in assay [9]; 1 µM in assay [10]; 1.4 µM in assay [11].
